Measured values reported in paper PMC3161730 (2012).
Like-named read-outs stand apart in the source and are kept apart here.

Experiments:
Assay in all cases: plate-based fluorescence binding assay
TrkB [1] = molecular target: T1, TrkB (Rattus norvegicus, UniProt Q63604)
T1 chain: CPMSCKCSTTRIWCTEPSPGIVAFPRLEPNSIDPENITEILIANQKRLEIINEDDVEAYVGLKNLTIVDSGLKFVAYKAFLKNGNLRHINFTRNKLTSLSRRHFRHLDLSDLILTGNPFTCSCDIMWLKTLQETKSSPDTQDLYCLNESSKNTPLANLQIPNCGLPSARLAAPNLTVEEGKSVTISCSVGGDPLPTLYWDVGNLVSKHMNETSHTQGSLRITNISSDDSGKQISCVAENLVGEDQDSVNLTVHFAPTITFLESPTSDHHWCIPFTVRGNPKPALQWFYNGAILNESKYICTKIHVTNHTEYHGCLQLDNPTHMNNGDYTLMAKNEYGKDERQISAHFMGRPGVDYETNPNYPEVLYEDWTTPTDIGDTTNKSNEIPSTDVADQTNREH

TrkB [2] = molecular target: T1, TrkB
TrkB [3] = molecular target: T1, TrkB
TrkB [4] = molecular target: T1, TrkB

Kd (TrkB [1]): 3.37 nM
Kd (TrkB [2]): 0.00179 nM
Kd (TrkB [3]): 0.53 nM
Kd (TrkB [4]): 0.00011 nM
B1: BDNF (protein)
chain: HSDPARRGELSVCDSISEWVTAADKKTAVDMSGGTVTVLEKVPVSKGQLKQYFYETKCNPMGYTKEGCRGIDKRHWNSQCRTTQSYVRALTMDSKKRIGWRFIRIDTSCVCTLTIKRGR
